Measurements taken from patent US20180155427A1 (Novartis, published 2018).

Legend:
[1] = target: T1, human PD-1 expressed on cells (human, UniProt Q15116 25-288); experiment: FACS competition binding on PD-1 expressing Jurkat cells; competitor: fluorescently labeled murine mAb BAP049; MFI of bound labeled mAb
T1 construct: whole, on cells; Treated as one molecule; also called PD-1 expressing Jurkat cells; human PD-1 transfected Jurkat cells
Procedure: The concentration of the murine mAb was determined by OD280 measurement, whereas the chimeric mAb concentrations in supernatants were determined with an ELISA using an IgG4 standard.

[2] = target: T1, human PD-1 expressed on cells; experiment: FACS on human PD-1 transfected Jurkat cells
[3] = target: T1, human PD-1 expressed on cells; experiment: FACS blocking assay on PD-1-expressing 300.19 cells; blocked ligand at constant concentration: PD-L1-huIgG1 Fc fusion protein (legend paragraph 211 names 'PD-L1-Ig and PD-L2-Ig' for FIG. 8A); bound ligand detected with PE anti-human IgG F(ab')2
Procedure: Incubation was at 4° C. for 30 min. Bound ligand fusion proteins were detected with PE-conjugated F(ab′)2 fragment of goat anti-human IgG which doesn't recognize IgG4 mAbs (Southern Biotech 2043-09), and flow cytometry.

[4] = target: T1, human PD-1 expressed on cells; experiment: competition binding assay on human PD-1-expressing 300.19 cells, competitor PD-L2; competitor PD-L2
[5] = target: T2, cynomolgus PD-1 expressed on cells (cynomolgus, UniProt B0LAJ3 25-288); experiment: FACS on cells transfected with cynomolgus PD-1
T2 construct: also called cynomolgus T cells; cells transfected with cynomolgus PD-1
T2 sequence (B0LAJ3 entry or part of it limits assumed): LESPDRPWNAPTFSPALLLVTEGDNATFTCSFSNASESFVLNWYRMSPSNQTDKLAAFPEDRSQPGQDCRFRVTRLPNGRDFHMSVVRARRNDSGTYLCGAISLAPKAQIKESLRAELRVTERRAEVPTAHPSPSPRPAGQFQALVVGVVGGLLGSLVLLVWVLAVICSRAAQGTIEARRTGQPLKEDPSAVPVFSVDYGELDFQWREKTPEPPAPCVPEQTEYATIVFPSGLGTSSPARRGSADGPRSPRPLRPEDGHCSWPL

[6] = target: T1, human PD-1 expressed on cells; experiment: competition binding assay on human PD-1-expressing 300.19 cells, competitor PD-L1; competitor PD-L1
[7] = target: human PD-1-Ig fusion protein (human, UniProt Q15116 25-167); experiment: ELISA
Chain of human PD-1-Ig fusion protein (Q15116 25-167): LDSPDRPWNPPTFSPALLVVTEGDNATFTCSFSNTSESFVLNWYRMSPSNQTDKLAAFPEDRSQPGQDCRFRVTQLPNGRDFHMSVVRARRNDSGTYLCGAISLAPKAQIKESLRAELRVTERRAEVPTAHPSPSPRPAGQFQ

[8] = target: T2, cynomolgus PD-1 expressed on cells; experiment: FACS on cynomolgus T cells

T1 sequence (Q15116 25-288): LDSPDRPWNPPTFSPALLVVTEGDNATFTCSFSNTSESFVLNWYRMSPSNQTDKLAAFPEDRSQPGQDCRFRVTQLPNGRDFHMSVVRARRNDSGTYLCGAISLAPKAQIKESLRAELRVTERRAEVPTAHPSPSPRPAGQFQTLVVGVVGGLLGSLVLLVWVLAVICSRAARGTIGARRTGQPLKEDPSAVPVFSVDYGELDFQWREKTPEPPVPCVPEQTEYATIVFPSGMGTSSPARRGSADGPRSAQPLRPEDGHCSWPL

binding result [1] | Kd [2] [pM] | IC50 (read off the curve) [3] [µg/mL] | IC50 [4] [pM] | Kd [5] [pM] | IC50 [6] [pM] | Kd [7] [pM] | Kd [8] [pM] | Binder
binds |  |  |  |  |  |  |  | chimeric antibody BAP049-chi (Ser) (antibody, human IgG4 S228P, kappa, V domains shown, also called Chi mAb (Ser)) VH: QVQLQQSGSELVRPGASVKLSCKASGYTFTTYWMHWVRQRPGQGLEWIGNIYPGTGGSNFDEKFKNRTSLTVDTSSTTAYMHLASLTSEDSAVYYCTRWTTGTGAYWGQGTTVTVSS VL: DIVMTQSPSSLTVTAGEKVTMSCKSSQSLLDSGNQKNFLTWYQQKPGQPPKLLIFWASTRESGVPDRFTGSGSVTDFTLTISSVQAEDLAVYYCQNDYSYPSTFGQGTKVEIKR
 | 60 | ~0.6 | 900 | 600 | 300 | 40 | 400 | murine anti-PD-1 monoclonal antibody BAP049 (antibody, V domains shown, the murine constant regions are not; also called murine mAb BAP049; Mu mAb) VH: QVQLQQSGSELVRPGASVKLSCKASGYTFTTYWMHWVRQRPGQGLEWIGNIYPGTGGSNFDEKFKNRTSLTVDTSSTTAYMHLASLTSEDSAVYYCTRWTTGTGAYWGQGTLVTVSA VL: DIVMTQSPSSLTVTAGEKVTMSCKSSQSLLDSGNQKNFLTWYQQKPGQPPKLLIFWASTRESGVPDRFTGSGSVTDFTLTISSVQAEDLAVYYCQNDYSYPCTFGGGTKLEIK
